The supplement of paper PMC7877785
± gives the uncertainty stated by the source.

Assay: self-splicing fitness, log relative to wild type (ln ratio); higher = more splicing; Tetrahymena group I intron in knt gene, E. coli kanamycin selection, DiMSum; sequences stand for … in CUCUCU…GGAGGGAAAAGUUAUCAGGCAUGCACCUGGUAGCUAGUCUUUAAACCAAUAGAUUGCAUCGGUUUAAAAGGCAAGACCGUCAAAUUGCGGGAAAGGGGUCAACAGCCGUUCAGUACCAAGUCUCAGGGGAAACUUUGAGAUGGCCUUGCAAAGGGUAUGGUAAUAAGCUGACGGACAUGGUCCUAACCACGCAGCCAAGUCCUAAGUCAACAGAUCUUCUGUUGAUAUGGAUGCAGUUCACAGACUAAAUGUCGGUCGGGGAAGAUGUAUUCUUCUCAUAAGAUAUAGUCGGACCUCUCCUUAAUGGGAGCUAGCGGAUGAAGUGAUGCAACACUGGAGCCGCUGGGAACUAAUUUGUAUGCGAAAGUAUAUUGAUUAGUUUUGGAGUACUCGUGGUCG
Procedure, shortened: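 The eight P1ex-region nucleotides of an intron in the knt kanamycin-resistance gene on pET-22b(+) were all randomised and the library put into E. coli BL21(DE3). Six replicate transformations were grown overnight at 37°C or 30°C on LB agar with or without 25 μg/mL kanamycin, together with 100 μg/mL carbenicillin, 50 μM IPTG and 0.2% rhamnose. Colonies were pooled and amplicon-sequenced on an Illumina HiSeq 2500. Fitness from DiMSum is the error-weighted combination of wild-type-normalised replicate fold changes, kanamycin over none.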

| Sequence | self-splicing fitness (ln) (30 °C) | self-splicing fitness (ln) (37 °C) |
| --- | --- | --- |
| CAAUAGCAAUAUUACGGAAU | -3.67 ± 0.35 | -3.11 ± 0.33 |
| UCUGAGCAAUAUUACGAGUU | -2.13 ± 0.25 |  |
| GGCGAGCAAUAUUACGGCAG |  | -1.94 ± 0.36 |
| GCCGAGCAAUAUUACGCGUC | -0.898 ± 0.14 | -0.0598 ± 0.2 |
| AAUCAGCAAUAUUACGGCGC | -0.736 ± 0.096 | 0.0282 ± 0.11 |
| ACCCAGCAAUAUUACGACCU | -0.748 ± 0.062 | -0.326 ± 0.074 |
| CAGAAGCAAUAUUACGCAAA | -3.57 ± 0.35 | -1.81 ± 0.26 |
| GAAGAGCAAUAUUACGUCGG | -3.36 ± 0.3 | -2.37 ± 0.3 |
| GUGCAGCAAUAUUACGUCGG | -2.84 ± 0.16 | -1.47 ± 0.17 |
| GUGCAGCAAUAUUACGAUCA | -1.14 ± 0.1 | -0.487 ± 0.12 |
| GAAGAGCAAUAUUACGUUGU | -3.56 ± 0.28 | -2.83 ± 0.24 |
| GCCUAGCAAUAUUACGGAUG | -1.84 ± 0.11 | -0.882 ± 0.12 |
| AUACAGCAAUAUUACGUGAU | -2.14 ± 0.084 | -0.569 ± 0.089 |
| AAUAAGCAAUAUUACGCGAC | -1.61 ± 0.14 | -1.46 ± 0.14 |
| UCAUAGCAAUAUUACGAUGC | -1.49 ± 0.14 | -1.43 ± 0.14 |
| AAGUAGCAAUAUUACGAGAU | -2.66 ± 0.16 | -1.34 ± 0.15 |
| GACGAGCAAUAUUACGGGUU | -3.77 ± 0.18 | -2.75 ± 0.21 |
| AUAUAGCAAUAUUACGUGUA | -2.27 ± 0.36 | -2.01 ± 0.25 |
| GAUAAGCAAUAUUACGUGCC | -0.717 ± 0.1 | -0.548 ± 0.13 |
| GGGGAGCAAUAUUACGGAAU |  | -1.68 ± 0.33 |
| GGCCAGCAAUAUUACGUACU | -0.417 ± 0.08 | -0.256 ± 0.093 |
| UUGUAGCAAUAUUACGACUA | -0.429 ± 0.13 | -0.0263 ± 0.16 |
| UUGCAGCAAUAUUACGAGCG | -1.14 ± 0.15 | -0.665 ± 0.15 |
| AAUCAGCAAUAUUACGCGAC | -1.17 ± 0.085 | -1.96 ± 0.15 |
| CUUCAGCAAUAUUACGCGGU | -2.21 ± 0.096 | -0.649 ± 0.095 |
| CUCUAGCAAUAUUACGUCCU | -2.87 ± 0.39 |  |

| Sequence | self-splicing fitness (ln) (30 °C) | self-splicing fitness (ln) (37 °C) |
| --- | --- | --- |
| GACAAGCAAUAUUACGAAGA | -2.94 ± 0.17 | -1.19 ± 0.13 |
| CAAGAGCAAUAUUACGAAUG | -2.34 ± 0.09 | -1.79 ± 0.14 |
| AAACAGCAAUAUUACGCAUU | -2.68 ± 0.094 | -1.08 ± 0.094 |
| UUUAAGCAAUAUUACGCGAU | -3.34 ± 0.43 | -2.32 ± 0.29 |
| AUUCAGCAAUAUUACGACGG | -2.61 ± 0.19 | -1.52 ± 0.17 |
| AGGUAGCAAUAUUACGCCGG | -1.09 ± 0.017 | -0.556 ± 0.034 |
| GGAAAGCAAUAUUACGGUCC | -2.06 ± 0.25 |  |
| CCCCAGCAAUAUUACGAGGA | -2.66 ± 0.13 | -1.53 ± 0.11 |
| AAACAGCAAUAUUACGCUAA | -1.6 ± 0.084 | -1.58 ± 0.1 |
| CUGUAGCAAUAUUACGUGUC | -2.97 ± 0.27 | -1.29 ± 0.17 |
| AAAGAGCAAUAUUACGCGCG | -2.69 ± 0.17 | -1.65 ± 0.17 |
| UAGUAGCAAUAUUACGAUCC | -3.16 ± 0.45 | -2.22 ± 0.4 |
| AUGUAGCAAUAUUACGUAGG | -3.93 ± 0.19 | -1.43 ± 0.096 |
| CAUGAGCAAUAUUACGUUAU | -3.12 ± 0.14 | -2.54 ± 0.24 |
| GCUGAGCAAUAUUACGAUCU | -1.69 ± 0.094 | -1.05 ± 0.1 |
| GACAAGCAAUAUUACGCACU | 0.582 ± 0.11 | -0.112 ± 0.12 |
| UCAUAGCAAUAUUACGCCGC | -3.77 ± 0.33 | -1.61 ± 0.41 |
| GAAGAGCAAUAUUACGGCCU | -1.15 ± 0.14 | -0.824 ± 0.19 |
| CGAUAGCAAUAUUACGUUCA | -0.0649 ± 0.082 | 0.251 ± 0.1 |
| UCAGAGCAAUAUUACGGCCA | -2.1 ± 0.27 | -2.17 ± 0.32 |
| UUAUAGCAAUAUUACGCUCA | -0.877 ± 0.38 | -1.09 ± 0.42 |
| CAGUAGCAAUAUUACGCUUG | -0.882 ± 0.13 | -0.797 ± 0.22 |
| ACAUAGCAAUAUUACGUGGU | -3.44 ± 0.16 | -3.3 ± 0.24 |
| UCAAAGCAAUAUUACGGAUA | -3.12 ± 0.18 | -1.94 ± 0.14 |
| ACAUAGCAAUAUUACGAAGG | -3.69 ± 0.28 | -1.33 ± 0.18 |
| UUCUAGCAAUAUUACGCUAA | -2.53 ± 0.21 | -0.91 ± 0.14 |

| Sequence | self-splicing fitness (ln) (30 °C) | self-splicing fitness (ln) (37 °C) |
| --- | --- | --- |
| UAGGAGCAAUAUUACGAAGU |  | -2.35 ± 0.43 |
| UCCCAGCAAUAUUACGGACA | -1.63 ± 0.092 | -0.126 ± 0.081 |
| AAGGAGCAAUAUUACGUUCG | -1.78 ± 0.11 | -0.665 ± 0.2 |
| CAAAAGCAAUAUUACGGAAC | -2.55 ± 0.15 | -2.87 ± 0.27 |
| ACUGAGCAAUAUUACGGGUC | -4.21 ± 0.27 | -3.02 ± 0.33 |
| UCGAAGCAAUAUUACGACGU | -0.755 ± 0.1 | -0.205 ± 0.099 |
| AAAUAGCAAUAUUACGGCGU | -0.263 ± 0.071 | -0.0261 ± 0.095 |
| UAUUAGCAAUAUUACGAAAA | -1.68 ± 0.26 | -1.2 ± 0.26 |
| CGAGAGCAAUAUUACGAUCA | -2.63 ± 0.38 | -1.75 ± 0.38 |
| UGGAAGCAAUAUUACGCGAG | -1.26 ± 0.19 | 0.167 ± 0.16 |
| ACGUAGCAAUAUUACGAGCC | -3.28 ± 0.35 | -2.55 ± 0.44 |
| ACGUAGCAAUAUUACGUGCA | -2.38 ± 0.17 | -0.124 ± 0.096 |
| GAGAAGCAAUAUUACGGAGU | -3.2 ± 0.24 | 0.0737 ± 0.12 |
| AUGGAGCAAUAUUACGACUA | -1.08 ± 0.14 | -1.33 ± 0.16 |
| GAUGAGCAAUAUUACGCGGU | -3.33 ± 0.28 | -2.77 ± 0.34 |
| CAGGAGCAAUAUUACGACAG | -0.986 ± 0.27 | -1.19 ± 0.27 |
| GGAAAGCAAUAUUACGCUUG | -2.12 ± 0.14 | -1.15 ± 0.21 |
| AUGAAGCAAUAUUACGUAGG | -2.79 ± 0.16 | -1.25 ± 0.18 |
| CCGGAGCAAUAUUACGCAGC |  | -2.52 ± 0.37 |
| UAACAGCAAUAUUACGAGCU | -3.71 ± 0.12 | -2.37 ± 0.11 |
| GCUAAGCAAUAUUACGCUAG | -2.94 ± 0.35 | -3.64 ± 0.4 |
| UACGAGCAAUAUUACGUGCU | -3.9 ± 0.23 | -2.4 ± 0.19 |
| GCACAGCAAUAUUACGCCAG | -1.99 ± 0.25 | -2.06 ± 0.26 |
| CCAUAGCAAUAUUACGUCGG | -3.15 ± 0.19 | -2.02 ± 0.29 |
| ACAUAGCAAUAUUACGGGGA | -2.65 ± 0.29 | -1.92 ± 0.19 |
